Measured values: article PMC8329861, “Structure of the unique tetrameric STENOFOLIA homeodomain bound with target promoter DNA”
Changes are numbered by the printed parent chain.

Experiments:
[1] = target: T1, His-MBP-STF85-190 R96A (Medicago truncatula, UniProt G0ZGT3 85-190, R96A); assay: EMSA; PAGE EMSA: 10 mM Tris-HCl pH 7.5, 100 mM KCl, 1 mM DTT, 2.5% glycerol, 5 ng/ul poly(dI-dC), 0.05% NP-40, 0.05 ug/ul protein, 5 fmol/ul DNA, room temperature 30; conditions: protein: recombinant; tags: N-terminal 6xHis-MBP; label: 3' biotin; blunt
T1 sequence: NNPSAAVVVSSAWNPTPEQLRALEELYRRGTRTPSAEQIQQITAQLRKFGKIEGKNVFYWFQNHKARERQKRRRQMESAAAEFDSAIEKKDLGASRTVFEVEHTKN

[2] = target: T2, His-MBP-STF85-190 R113Q (Medicago truncatula, UniProt G0ZGT3 85-190, R113Q); assay: EMSA; not affected; PAGE EMSA: 10 mM Tris-HCl pH 7.5, 100 mM KCl, 1 mM DTT, 2.5% glycerol, 5 ng/ul poly(dI-dC), 0.05% NP-40, 0.05 ug/ul protein, 5 fmol/ul DNA, room temperature 30; conditions: protein: recombinant; tags: N-terminal 6xHis-MBP; label: 3' biotin; blunt
T2 sequence: T1 sequence with A12R, R29Q

[3] = target: T3, STF-HD WT (Medicago truncatula, UniProt G0ZGT3 85-190); assay: EMSA (agarose); stable complex at 1:4 DNA:protein; PAGE EMSA: 10 mM Tris-HCl pH 7.5, 100 mM KCl, 1 mM DTT, 2.5% glycerol, 5 ng/ul poly(dI-dC), 0.05% NP-40, 0.05 ug/ul protein, 5 fmol/ul DNA, room temperature 30; conditions: protein: recombinant; tags: 6xHis-MBP removed by TEV; chain copies: 4; label: 5' 6-FAM; blunt
T3 sequence: T1 sequence with A12R

[4] = target: T4, STF-HD F167A/I171A (Medicago truncatula, UniProt G0ZGT3 85-190, F167A;I171A); assay: fluorescence polarization; no significant decrease vs WT; value only in figure; PAGE EMSA: 10 mM Tris-HCl pH 7.5, 100 mM KCl, 1 mM DTT, 2.5% glycerol, 5 ng/ul poly(dI-dC), 0.05% NP-40, 0.05 ug/ul protein, 5 fmol/ul DNA, room temperature 30; conditions: protein: recombinant; tags: 6xHis-MBP removed by TEV; label: 5' 6-FAM; blunt
T4 sequence: T1 sequence with A12R, F83A, I87A

[5] = target: T5, STF-HD S169E (Medicago truncatula, UniProt G0ZGT3 85-190, S169E); assay: as above; conditions: protein: recombinant; tags: 6xHis-MBP removed by TEV; label: 5' 6-FAM; blunt
T5 sequence: T1 sequence with A12R, S85E

[6] = target: T6, His-MBP-STF85-190 R151A (Medicago truncatula, UniProt G0ZGT3 85-190, R151A); assay: EMSA; binding retained; PAGE EMSA: 10 mM Tris-HCl pH 7.5, 100 mM KCl, 1 mM DTT, 2.5% glycerol, 5 ng/ul poly(dI-dC), 0.05% NP-40, 0.05 ug/ul protein, 5 fmol/ul DNA, room temperature 30; conditions: protein: recombinant; tags: N-terminal 6xHis-MBP; label: 3' biotin; blunt
T6 sequence: T1 sequence with A12R, R67A

[7] = target: T3, STF-HD WT; assay: X-ray crystallography (2.1 A); PAGE EMSA: 10 mM Tris-HCl pH 7.5, 100 mM KCl, 1 mM DTT, 2.5% glycerol, 5 ng/ul poly(dI-dC), 0.05% NP-40, 0.05 ug/ul protein, 5 fmol/ul DNA, room temperature 30; conditions: protein: recombinant; tags: 6xHis-MBP removed by TEV; chain copies: 4; blunt
[8] = target: T7, STF-HD L107M/L110M/L130M (STF_3M-HD) (Medicago truncatula, UniProt G0ZGT3 85-190, L107M;L110M;L130M); assay: X-ray crystallography (SAD); SeMet protein; PAGE EMSA: 10 mM Tris-HCl pH 7.5, 100 mM KCl, 1 mM DTT, 2.5% glycerol, 5 ng/ul poly(dI-dC), 0.05% NP-40, 0.05 ug/ul protein, 5 fmol/ul DNA, room temperature 30; conditions: protein: recombinant, tags: 6xHis-MBP removed by TEV, chain copies: 4, blunt
T7 sequence: T1 sequence with A12R, L23M, L26M, L46M

B1: MtAS2 22 bp biotin (dsDNA)
DNA 1: TGGATTTAATAATGAAGTGACA
DNA 2: TGTCACTTCATTATTAAATCCA
[1]
  binding result: no binding
[2]
  binding result: binds

B2: MtAS2 22 bp FAM (dsDNA)
DNA 1: TGGATTTAATAATGAAGTGACA
DNA 2: TGTCACTTCATTATTAAATCCA
[3]
  binding result: binds

B3: MtLOB39 22 bp FAM (dsDNA)
DNA 1: GCAAATTAATGATTTATTCAAG
DNA 2: CTTGAATAAATCATTAATTTGC
[3]
  binding result: binds
[4]
  binding result: binds
[5]
  binding result: binds

B4: TAAT probe (TAAT motifs) (dsDNA)
DNA 1: GCAAATTAATTATTTATTAAAG
DNA 2: CTTTAATAAATAATTAATTTGC
[6]
  binding result: binds

B5: MtLOB39 22 bp (crystal) (dsDNA)
DNA 1: GCAAATTAATGATTTATTCAAG
DNA 2: CTTGAATAAATCATTAATTTGC
[7]
  binding result: binds
[8]
  binding result: binds
